# Measured values taken from patent publication US20200277397A1 (Genmab, published 2020).
# T1: full length cynomolgus monkey 5T4 (cynomolgus monkey, UniProt Q4R8Y9 35-420)
# T1 construct: Uniprot Q4R8Y9; also called cynomolgus monkey 5T4 on HEK-293 cells
# T1 sequence: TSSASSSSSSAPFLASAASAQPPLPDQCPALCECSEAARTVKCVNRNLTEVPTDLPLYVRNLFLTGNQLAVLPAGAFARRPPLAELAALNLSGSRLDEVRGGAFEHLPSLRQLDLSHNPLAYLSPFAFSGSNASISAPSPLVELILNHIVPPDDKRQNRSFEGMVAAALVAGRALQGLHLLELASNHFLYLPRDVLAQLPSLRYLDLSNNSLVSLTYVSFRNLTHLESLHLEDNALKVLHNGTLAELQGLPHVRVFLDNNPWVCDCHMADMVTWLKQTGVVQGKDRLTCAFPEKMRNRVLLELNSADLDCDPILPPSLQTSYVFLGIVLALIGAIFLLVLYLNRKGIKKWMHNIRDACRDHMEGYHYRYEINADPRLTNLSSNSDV
# T2: full length human 5T4 (human, UniProt Q13641 32-420)
# T2 construct: Uniprot Q13641; Used here also for endogenous 5T4 on the human tumour cell lines
# T2 sequence: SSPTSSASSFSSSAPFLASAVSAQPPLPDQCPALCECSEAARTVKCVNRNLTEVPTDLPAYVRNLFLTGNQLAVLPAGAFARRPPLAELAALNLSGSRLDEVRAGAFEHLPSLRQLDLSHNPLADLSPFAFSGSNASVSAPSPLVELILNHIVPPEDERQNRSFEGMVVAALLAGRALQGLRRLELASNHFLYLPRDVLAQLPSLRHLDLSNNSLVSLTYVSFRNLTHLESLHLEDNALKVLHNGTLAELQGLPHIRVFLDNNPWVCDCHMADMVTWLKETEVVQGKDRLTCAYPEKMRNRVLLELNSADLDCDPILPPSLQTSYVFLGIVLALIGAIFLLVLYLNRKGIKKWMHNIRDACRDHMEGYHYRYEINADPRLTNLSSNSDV
# B1: IgG1-5T4-076-FEAR (antibody, V domains shown)
# VH: QVQLVQSGAEVKKPGASVKVSCKASGYTFTSYGISWVRQAPGQGLEWMGWISAYNGNTNYAQKLQGRVTMTTDTSTRTAYMELRSLRSDDTAVYYCARDPGYFDWLYGDYWGQGTLVTVSS
# VL: AIQLTQSPSSLSASVGDRVTITCRASQGISSALAWYQQKPGKAPKLLIYDASSLESGVPSRFSGSGSGTDFTLTISSLQPEDFATYYCQQFNSYPRTFGQGTKVEIKR
# notes: Human IgG1 FEAR, kappa (as for m12)
# B2: bsIgG1-huCD3-H101G-FEALx5T4-207-FEAR (bispecific antibody)
# heavy 1: not shown
# VL: not shown
# heavy 2: QVQLQQWGAGLLKPSETLSLTCAVYGGSFSGYYWTWIRQPPGKGLEWIGEIDHSESTNYNPSLKSRVTISVDTSKNQFSLKLSSVTAADTAVYYCAGWFGELYHYYYGMDVWGQGTTVTVSSASTKGPSVFPLAPSSKSTSGGTAALGCLVKDYFPEPVTVSWNSGALTSGVHTFPAVLQSSGLYSLSSVVTVPSSSLGTQTYICNVNHKPSNTKVDKRVEPKSCDKTHTCPPCPAPEFEGGPSVFLFPPKPKDTLMISRTPEVTCVVVAVSHEDPEVKFNWYVDGVEVHNAKTKPREEQYNSTYRVVSVLTVLHQDWLNGKEYKCKVSNKALPAPIEKTISKAKGQPREPQVYTLPPSREEMTKNQVSLTCLVKGFYPSDIAVEWESNGQPENNYKTTPPVLDSDGSFFLYSRLTVDKSRWQQGNVFSCSVMHEALHNHYTQKSLSLSPGK
# light: not shown
# B3: bsIgG1-huCD3-H101G-FEALx5T4-226-FEAR (bispecific antibody)
# heavy 1: not shown
# VL: not shown
# heavy 2: QVQLQQWGAGLLKPSETLSLTCAVYGGSFSGYYWSWIRQPPGKGLEWIGEIDHSGSTNYNPSLKSRVTISVDTSKNQFSLKLSSVTAADTAVYYCAAWFGELWDYYYGMDVWGQGTTVTVSSASTKGPSVFPLAPSSKSTSGGTAALGCLVKDYFPEPVTVSWNSGALTSGVHTFPAVLQSSGLYSLSSVVTVPSSSLGTQTYICNVNHKPSNTKVDKRVEPKSCDKTHTCPPCPAPEFEGGPSVFLFPPKPKDTLMISRTPEVTCVVVAVSHEDPEVKFNWYVDGVEVHNAKTKPREEQYNSTYRVVSVLTVLHQDWLNGKEYKCKVSNKALPAPIEKTISKAKGQPREPQVYTLPPSREEMTKNQVSLTCLVKGFYPSDIAVEWESNGQPENNYKTTPPVLDSDGSFFLYSRLTVDKSRWQQGNVFSCSVMHEALHNHYTQKSLSLSPGK
# light: not shown
# B4: bsIgG1-huCD3-H101G-FEALx5T4-H8-FEAR (bispecific antibody)
# heavy 1: not shown
# VL 1: not shown
# heavy 2: EVQLQQSGPDLVKPGASVKISCKASGYSFTGYYMHWVKQSHGKSLEWIGRINPNNGVTLYNQKFKDKAILTVDKSSTTAYMELRSLTSEDSAVYYCARSTMITNYVMDYWGQVTSVTVSSASTKGPSVFPLAPSSKSTSGGTAALGCLVKDYFPEPVTVSWNSGALTSGVHTFPAVLQSSGLYSLSSVVTVPSSSLGTQTYICNVNHKPSNTKVDKRVEPKSCDKTHTCPPCPAPEFEGGPSVFLFPPKPKDTLMISRTPEVTCVVVAVSHEDPEVKFNWYVDGVEVHNAKTKPREEQYNSTYRVVSVLTVLHQDWLNGKEYKCKVSNKALPAPIEKTISKAKGQPREPQVYTLPPSREEMTKNQVSLTCLVKGFYPSDIAVEWESNGQPENNYKTTPPVLDSDGSFFLYSRLTVDKSRWQQGNVFSCSVMHEALHNHYTQKSLSLSPGK
# VL 2: SIVMTQTPTFLLVSAGDRVTITCKASQSVSNDVAWYQQKPGQSPTLLISYTSSRYAGVPDRFIGSGYGTDFTFTISTLQAEDLAVYFCQQDYNSPPTFGGGTKLEIK
# B5: IgG1-5T4-207-FEAR (antibody, V domains shown)
# VH: QVQLQQWGAGLLKPSETLSLTCAVYGGSFSGYYWTWIRQPPGKGLEWIGEIDHSESTNYNPSLKSRVTISVDTSKNQFSLKLSSVTAADTAVYYCAGWFGELYHYYYGMDVWGQGTTVTVSS
# VL: EIVLTQSPATLSLSPGERATLSCRASQSVSSYLAWYQQKPGQAPRLLIYDASNRATGIPARFSGSGSGTDFTLTISSLEPEDFAVYYCQQRSNWPLTFGGGTKVEIKR
# notes: as for B1
# Key:
# [1] = molecular target: T1, full length cynomolgus monkey 5T4; assay: flow cytometry, HEK-293 cells transfected with cynomolgus monkey 5T4 (right panel), PE anti-human IgG F(ab')2, MFI PE
# [2] = molecular target: T2, full length human 5T4; assay: flow cytometry, HeLa cells, PE anti-human IgG F(ab')2, MFI PE
# [3] = molecular target: T2, full length human 5T4; assay: flow cytometry, MDA-MB-231 cells, PE anti-human IgG F(ab')2, MFI PE
# [4] = molecular target: T2, full length human 5T4; assay: flow cytometry, HeLa cells (left panel), FITC anti-human IgG F(ab')2, MFI FITC
# Protocol: (§1) After washing twice in staining buffer, cells were incubated in 50 μL secondary antibody at 4° C. for 30 min. […] Next, cells were washed twice in staining buffer, re-suspended in 120 μL staining buffer and analyzed on a BD LSRFortessa FACS (BD Biosciences, USA). Binding curves were analyzed using non-linear regression (sigmoidal dose-response with variable slope) using GraphPad Prism V7.02 software (GraphPad Software, San Diego, Calif., USA).
# [5] = molecular target: T2, full length human 5T4; assay: flow cytometry, MDA-MB-231 cells (right panel), FITC anti-human IgG F(ab')2, MFI FITC
# Protocol: as §1
# [6] = molecular target: T2, full length human 5T4; assay: flow cytometry, HEK-293 cells transfected with human 5T4 (left panel), PE anti-human IgG F(ab')2, MFI PE
# [7] = molecular target: T1, full length cynomolgus monkey 5T4; assay: flow cytometry, HEK-293 cells transfected with cynomolgus monkey 5T4 (right panel), PE anti-human IgG F(ab')2, MFI PE; remark: listed apart in the source
# [8] = molecular target: T1, full length cynomolgus monkey 5T4; assay: flow cytometry, HEK-293 cells transfected with full length cynomolgus monkey 5T4 (right panel), FITC anti-human IgG F(ab')2, MFI FITC
# Protocol: (§2) Binding of monovalent and bivalent 5T4 antibodies was analysed using HEK-293 cells transiently transfected with full length human (left panels) or cynomolgus monkey 5T4 (right panels). Cells were incubated with increasing concentrations of antibodies, as indicated. After secondary labelling with FITC conjugated goat-anti-human IgG F(ab′)2, binding was analysed by flow cytometry. […] Data are presented as mean fluorescence intensity (MFI) values of two technical replicates±SD.
# (§3) Experiments were performed in technical duplicate. After washing twice in staining buffer, cells were incubated in 50 μL secondary antibody at 4° C. for 30 min. […] Cells were washed twice in staining buffer, re-suspended in 30 μL staining buffer and analyzed on an iQue Screener (Intellicyt Corporation, USA). Binding curves were analyzed using non-linear regression (sigmoidal dose-response with variable slope) using GraphPad Prism V7.02 software (Graph Pad Software, San Diego, Calif., USA).
# [9] = molecular target: T2, full length human 5T4; assay: flow cytometry, HeLa cells, PE anti-human IgG F(ab')2, MFI PE; remark: listed apart in the source
# [10] = molecular target: T2, full length human 5T4; assay: flow cytometry, MDA-MB-231 cells, PE anti-human IgG F(ab')2, MFI PE; remark: listed apart in the source
# [11] = molecular target: T2, full length human 5T4; assay: flow cytometry, HeLa cells (left panel), FITC anti-human IgG F(ab')2, MFI FITC; remark: listed apart in the source
# Protocol: as §1
# [12] = molecular target: T2, full length human 5T4; assay: flow cytometry, MDA-MB-231 cells (right panel), FITC anti-human IgG F(ab')2, MFI FITC; remark: listed apart in the source
# Protocol: as §1
# [13] = molecular target: T2, full length human 5T4; assay: flow cytometry, HEK-293 cells transfected with human 5T4 (left panel), PE anti-human IgG F(ab')2, MFI PE; remark: listed apart in the source
# [14] = molecular target: T1, full length cynomolgus monkey 5T4; assay: flow cytometry, HEK-293 cells transfected with cynomolgus monkey 5T4 (right panel), PE anti-human IgG F(ab')2, MFI PE; remark: listed apart in the source
# [15] = molecular target: T2, full length human 5T4; assay: flow cytometry, HEK-293 cells transfected with full length human 5T4 (left panel), FITC anti-human IgG F(ab')2, MFI FITC
# Protocol: as §2, §3
# [16] = molecular target: T1, full length cynomolgus monkey 5T4; assay: flow cytometry, HEK-293 cells transfected with full length cynomolgus monkey 5T4 (right panel), FITC anti-human IgG F(ab')2, MFI FITC; remark: listed apart in the source
# Protocol: as §2, §3
# [17] = molecular target: T2, full length human 5T4; assay: flow cytometry, HEK-293 cells transfected with full length human 5T4 (left panel), FITC anti-human IgG F(ab')2, MFI FITC; remark: listed apart in the source
# Protocol: as §2, §3
# [18] = molecular target: T1, full length cynomolgus monkey 5T4; assay: flow cytometry, HEK-293 cells transfected with full length cynomolgus monkey 5T4 (right panel), FITC anti-human IgG F(ab')2, MFI FITC; remark: listed apart in the source
# Protocol: as §2, §3
binder,measurement,setting,value
B1,EC50 (read off the curve),[1],~0.01 µg/mL
B2,EC50 (read off the curve),[2],~0.04 µg/mL
same,EC50 (read off the curve),[3],~0.04 µg/mL
same,EC50 (read off the curve),[4],~0.05 µg/mL
same,EC50 (read off the curve),[5],~0.1 µg/mL
same,EC50 (read off the curve),[6],~0.05 µg/mL
same,EC50 (read off the curve),[7],~0.03 µg/mL
same,EC50 (read off the curve),[8],~0.1 µg/mL
B3,EC50 (read off the curve),[9],~0.04 µg/mL
same,EC50 (read off the curve),[10],~0.04 µg/mL
same,EC50 (read off the curve),[11],~0.02 µg/mL
same,EC50 (read off the curve),[12],~0.09 µg/mL
same,EC50 (read off the curve),[13],~0.09 µg/mL
same,EC50 (read off the curve),[14],~0.06 µg/mL
same,EC50 (read off the curve),[15],~0.2 µg/mL
same,EC50 (read off the curve),[16],~0.1 µg/mL
B4,binding result,[17],binds
same,EC50 (read off the curve),[18],~0.1 µg/mL
B5,EC50 (read off the curve),[3],~0.02 µg/mL
same,EC50 (read off the curve),[7],~0.1 µg/mL
